Experimental data published in patent US20180312587A1 (ADURO BIOTECH HOLDINGS EUROPE B V, published 2018).

B1: hSIRPα.40A (antibody, mouse IgG1, kappa, V domains shown)
VH: EVQFQQSGTVLARPGTSVKMSCKASGSTFTSYWMHWVKQGPGQGLQWIGAIYPVNNDTTYNQKFKGKAELTVVTSTSTAYMEVSSLTNEDSAVYYCTRSFYYSLDAAWFVYWGQGTLVTVSA
VL: DIQMTQSPSSLSASLGERVSLTCRASQDIGSRLNWLQQEPDGTIKRLIYATSSLDSGVPKRFSGSRSGSDYSLTISGLESEDFVDYYCLQYASSPFTFGGGTKLEINR
notes: mouse antibody, full chains without signal peptide; also called mouse hSIRPα.40A
B2: hSIRPα.50A (antibody, V domains shown)
VH: QVQLQQSGPELVKPGASVRISCKASGFTFTNYYIHWVKQRPGQGLEWIGWIYPGNVNTKYNEKFKAKATLTADKSSTTAYMQLSSLASEDSAVYFCARPTIIATDFDVWGAGTTVTVSS
VL: DIVMTQSHKFMSTSVGDRVNITCKASQGVGTAVGWYQQKPGQSPRLLIYWASTRHTGVPDRFTGSGSGTDFSLAISNVQSEDLADYFCQQYSTYPFTFGGGTNLEIK
notes: light chain constant domain not tied; also called mouse hSIRPα.50A; hSIRPα.50A.mIgG1

Experiments:
human SIRPα variant 1 = target: T1, human SIRPα variant 1 (human, UniProt P78324 31-504); assay: flow cytometry, blockade of DyLight488-hCD47/Fc binding to U-937 cells
T1 construct: full length ORF on transfected CHO-K1 or HEK293 cells; entry includes the signal peptide; also called hSIRPαV1; SIRPαV1
Experimental: hCD47 blockade was assessed by flow cytometry for the full panel of humanized hSIRPα.40A antibodies. To this end, the U-937 (ATCC CRL-1593.2) monocyte cell line was used as the source of hSIRPα in the assay. U-937 cells were seeded in 96-well round bottomed tissue culture plates and incubated for 45 minutes with FcR Blocking Reagent (Miltenyi Biotec) and the parental or humanized hSIRPα.40A antibody variants (20 μg/mL and dilutions thereof) in PBS/1% BSA at 4° C. […] After this labeling procedure, cells were washed two times, resuspended in PBS/1% BSA containing 0.1 μg/mL DAPI (BioLegend), and analysed by flow cytometry on the FACSVerse (BD Biosciences). Data were processed and analysed with FlowJo V10 software (FlowJo, LLC) and plotted using GraphPad Prism 6 (GraphPad Software, Inc.).
As depicted in FIG. 18 and the following Table 21, binding of recombinant hCD47 fused to an Fc domain of human IgG1 was monitored in the presence of increasing amounts of the humanized hSIRPα.40A antibody variants. Humanized hSIRPα.40A blocked the hSIRPα/hCD47 interaction, using the flow cytometry-based method described above. […] IC50 values represent the concentration at which half of the inhibition is observed.

[1] = target: T2, hSIRPα expressed on primary human cells (human, UniProt P78324 31-504); assay: flow cytometry, primary CD14+ enriched monocytes, donor 2
T2 construct: whole, on cells; also called hSIRPα on primary human CD14+ monocytes; on primary human granulocytes
Experimental: Next, the binding of hSIRPα.50A to hSIRPα expressed on primary human CD14⁺ monocytes was investigated. In addition, the ability of hSIRPα.50A to block the interaction between hSIRPα and recombinant hCD47/Fc-protein was assessed. For this purpose, CD14+ monocytes were isolated from Ficoll-purified human peripheral blood mononuclear cells (PBMCs) using RosetteSep human monocyte enrichment cocktail (Stemcell). The percentage of monocytes present after the enrichment was determined by flow cytometry on the FACSVerse (BD Biosciences) based on CD14 staining using an APC-Cy7-conjugated mouse-anti-human CD14 detection antibody (BD Biosciences). […] After this labeling procedure, cells were washed two times, resuspended in PBS/1% BSA containing 0.1 μg/mL DAPI (BioLegend), and analysed by flow cytometry on the FACSVerse (BD Biosciences). Data were processed and analysed with FlowJo V10 software (FlowJo, LLC).
To assess the blocking ability of hSIRPα.50A, CD14+ enriched monocytes cells were seeded in 96-well round bottomed tissue culture plates and incubated for 45 minutes with FcR Blocking Reagent (Miltenyi Biotec) and hSIRPα.50A antibody (200 μg/mL and dilutions thereof) in PBS/1% BSA at 4° C. […] After this labeling procedure, cells were washed two times, resuspended in PBS/1% BSA containing 0.1 μg/mL DAPI (BioLegend), and analysed by flow cytometry on the FACSVerse (BD Biosciences). […]

T2 sequence (P78324 31-504): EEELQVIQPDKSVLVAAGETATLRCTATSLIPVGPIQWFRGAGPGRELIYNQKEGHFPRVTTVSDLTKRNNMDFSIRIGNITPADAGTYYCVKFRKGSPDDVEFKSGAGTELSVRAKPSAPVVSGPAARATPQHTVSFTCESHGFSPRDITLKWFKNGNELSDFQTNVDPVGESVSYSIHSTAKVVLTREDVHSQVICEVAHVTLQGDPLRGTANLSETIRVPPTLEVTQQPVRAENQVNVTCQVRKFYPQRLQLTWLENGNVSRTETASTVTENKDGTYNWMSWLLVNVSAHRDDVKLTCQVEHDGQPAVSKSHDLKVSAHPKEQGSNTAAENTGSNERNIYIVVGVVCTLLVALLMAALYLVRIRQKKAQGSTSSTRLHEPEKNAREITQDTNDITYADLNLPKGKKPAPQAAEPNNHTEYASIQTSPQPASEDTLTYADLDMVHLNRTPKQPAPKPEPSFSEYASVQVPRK

Binder	IC50 (human SIRPα variant 1) [nM]	EC50 [1] [nM]
B1	1.12	
B2		3.08
